Assay results: patent US20250381223A1

Key:
Her2-Fc [1] = experiment: flow cytometry of T cells with 0.5 µg 4D5.BBZ mRNA and 15 µg 4.1 mRNA; Her2-Fc + PE-anti-IgG-Fc; E1 without mRNA: 1.26
Her2-Fc [2] = experiment: flow cytometry of T cells with 0.5 µg 4D5.BBZ mRNA and 15 µg 4.2 mRNA; Her2-Fc + PE-anti-IgG-Fc; E1 without mRNA: 1.26
Her2-Fc [3] = experiment: flow cytometry of T cells with 0.5 µg 4D5.BBZ mRNA and 15 µg 4.3 mRNA; Her2-Fc + PE-anti-IgG-Fc; E1 without mRNA: 1.26
Her2-Fc [4] = experiment: flow cytometry of T cells with 0.5 µg 4D5.BBZ mRNA and 15 µg 4.4 mRNA; Her2-Fc + PE-anti-IgG-Fc; E1 without mRNA: 1.26
Her2-Fc [5] = experiment: flow cytometry of T cells with 0.5 µg 4D5.BBZ mRNA and 15 µg 4.5 mRNA; Her2-Fc + PE-anti-IgG-Fc; E1 without mRNA: 1.26
Her2-Fc [6] = experiment: flow cytometry of T cells with 0.5 µg 4D5.BBZ mRNA and 15 µg 4.6 mRNA; Her2-Fc + PE-anti-IgG-Fc; E1 without mRNA: 1.26
Her2-Fc [7] = experiment: flow cytometry of T cells with 0.5 µg 4D5.BBZ mRNA and 15 µg 4.7 mRNA; Her2-Fc + PE-anti-IgG-Fc; E1 without mRNA: 1.26
Her2-Fc [8] = experiment: flow cytometry of T cells with 0.5 µg 4D5.BBZ mRNA and 15 µg 4.8 mRNA; Her2-Fc + PE-anti-IgG-Fc; E1 without mRNA: 1.26
Her2-Fc [9] = experiment: flow cytometry of T cells with 0.5 µg 4D5.BBZ mRNA and 15 µg 8.6 mRNA; Her2-Fc + PE-anti-IgG-Fc; E1 without mRNA: 1.26
CD40-Fc (human) = CD40-Fc (human) (UniProt P25942); experiment: flow cytometry of T cells electroporated with 0.5 µg 4D5.BBZ mRNA alone; CD40-Fc + PE-anti-IgG-Fc; E1 without mRNA: 0.27
Her2-Fc [10] = experiment: flow cytometry of T cells electroporated with 0.5 µg 4D5.BBZ mRNA alone; Her2-Fc + PE-anti-IgG-Fc; E1 without mRNA: 1.26
Her2-Fc [11] = experiment: flow cytometry of T cells with 0.5 µg 4D5.BBZ mRNA and 5 µg A40C28 mRNA; Her2-Fc + PE-anti-IgG-Fc; E1 without mRNA: 1.26
Her2-Fc [12] = experiment: flow cytometry of T cells with 0.5 µg 4D5.BBZ mRNA and 15 µg 1412-4D11 mRNA; Her2-Fc + PE-anti-IgG-Fc; E1 without mRNA: 1.26

% of cells in the positive gate (Her2-Fc [1]): 89.6
% of cells in the positive gate (Her2-Fc [2]): 88.8
% of cells in the positive gate (Her2-Fc [3]): 91.4
% of cells in the positive gate (Her2-Fc [4]): 91.1
% of cells in the positive gate (Her2-Fc [5]): 85.5
% of cells in the positive gate (Her2-Fc [6]): 87.9
% of cells in the positive gate (Her2-Fc [7]): 82.6
% of cells in the positive gate (Her2-Fc [8]): 81.6
% of cells in the positive gate (Her2-Fc [9]): 86.1
% of cells in the positive gate (CD40-Fc (human)): 0.67
% of cells in the positive gate (Her2-Fc [10]): 94.9
% of cells in the positive gate (Her2-Fc [11]): 94.6
% of cells in the positive gate (Her2-Fc [12]): 18.5
Substance: 4D5.BBZ (scFv)
